Measured values reported in paper PMC8516035.
pKd: −log10 of the molar value.

How the values were obtained:
[1] = test system: T1, phi13 CI, His-TEV tag cleaved (Staphylococcus aureus phage phi13), ORF:0019350b; assay: EMSA
T1 sequence: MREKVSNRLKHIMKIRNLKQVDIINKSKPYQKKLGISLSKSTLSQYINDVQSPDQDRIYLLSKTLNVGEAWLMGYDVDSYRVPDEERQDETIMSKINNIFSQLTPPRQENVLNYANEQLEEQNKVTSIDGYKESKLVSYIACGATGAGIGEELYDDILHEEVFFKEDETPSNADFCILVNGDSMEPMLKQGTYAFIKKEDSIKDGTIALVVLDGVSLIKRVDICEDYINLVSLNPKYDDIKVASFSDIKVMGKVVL

[2] = test system: phi13 rCI (CI repressor, N-terminal His-TEV) (Staphylococcus aureus phage phi13); assay: EMSA; conditions: Binding buffer (as listed, possibly stock) 100 mM Tris-HCl, 5 mM EDTA, 500 mM NaCl, 5 mM DTT, 25% glycerol, plus BSA and sheared DNA, pH not stated, ~0.5 nM …
[3] = test system: phi13 CI, His-TEV tag cleaved (Staphylococcus aureus phage phi13); assay: EMSA; conditions: Binding buffer (as listed, possibly stock) 100 mM Tris-HCl, 5 mM EDTA, 500 mM NaCl, 5 mM DTT, 25% glycerol, plus BSA and sheared DNA; pH not stated; ~0.5 nM …
[4] = test system: phi13 rCI (CI repressor, N-terminal His-TEV) (Staphylococcus aureus phage phi13); assay: EMSA; conditions: Binding buffer (as listed, possibly stock) 100 mM Tris-HCl, 5 mM EDTA, 500 mM NaCl, 5 mM DTT, 25% glycerol, plus BSA and sheared DNA; pH not stated; ~0.5 nM …
[5] = target: ɸ13 rCI (recombinant CI repressor protein of phage ɸ13 with an N-terminal His-tag and TEV cleavage site) (S. aureus phage ɸ13); assay: SEC; HiLoad 26/600 Superdex200 column; 20 mM Tris, 100 mM NaCl, pH 7.5; calibrated with Mw standards (Blue Dextran, Ferritin, Catalase, Aldolase, Carbonic Anhydrase, Aprotinin); tagged rCI after IMAC
[6] = apparent, free-probe loss, no specific band detected

Substance: GTAATACGACTCACTATAGGATAATAAAGCTTGTTGAACAAAAATTCAACAAAAAAGTTCATAAATCATGAATTTTTGTATTGACTTGATTCAAAACAAGGTGTAAAGTGGTAACTTTCACACAAAAGG (double strand) [OR]
- pKd [1]: 7.92

Substance: GTAATACGACTCACTATAGGATATACCGGTAGAGAAAATACACTTATATTTTTTTAAAGAAAAAGTTCATGTTATATGAACTTAAGGAGGGGCACAATGGAACAAATCACGGATCCGGTAACTTTCACACAAAAGG (double strand) [OD]
- pKd [1]: 7.92

Substance: GTAATACGACTCACTATAGGGACTTGATTCAAAACAAGGTGTAAAGTATAGTTAAGTTCATGATACGTGAACTTGAGAGGAGGTGCTTTTATGTGTTACGACTACTCAGGTAACTTTCACACAAAAGG (double strand) [OL]
- pKd [1]: 7.92

Substance: OD
- pKd [2]: 8.48
- pKd [3]: 7.92
- pKd [4]: 7.82

Substance: OD control
- pKd [2, 6]: 6.05

Substance: OL
- pKd [2]: 8.41
- pKd [3]: 7.92
- pKd [4]: 7.66

Substance: OL control
- pKd [2, 6]: 6.16

Substance: OR
- pKd [2]: 7.00
- pKd [3]: 7.92
- pKd [4]: 6.51

Substance: OR control
- pKd [2, 6]: 6.16

Substance: ɸ13 rCI (recombinant CI repressor protein of phage ɸ13 with an N-terminal His-tag and TEV cleavage site)
- stoichiometry N [5]: 4
